{"source": "patent US20250019402A1", "about": "(MEDIZINISCHE UNIVERSITAT INNSBRUCK, published 2025)", "note": "[ ]: non-standard residue; d: D form. The star is where a group is joined. DOTA = O=C(O)CN1CCN(CC(=O)O)CCN(CC(=O)*)CCN(CC(=O)O)CC1; 1Nal = N[C@@H](Cc1cccc2ccccc12)C(=O)O; 2Nal = N[C@@H](Cc1ccc2ccccc2c1)C(=O)O; NMeF = CN[C@@H](Cc1ccccc1)C(=O)O; NMeNle = CCCC[C@H](NC)C(=O)O; HYNIC = NNc1ccc(C(=O)*)cn1"}
{"biological_target": "serum proteins (fresh human serum) (human)", "test": "incubation in fresh human serum at 37 C (500 pmol/mL), Sephadex G-50 size-exclusion chromatography, gamma counting", "units": {"Percentage of radioligand bound to serum proteins after 4 h incubation": "%", "Percentage of radioligand bound to serum proteins after 24 h incubation": "%"}}
{"molecule": "{DOTA}-[dE]AYGW[NMeNle]D[NMeF]-NH2 (also: DOTA coordinates 111In)", "note": "[^111In-DOTA-MGS4 (^111In-DOTA-DGlu-Ala-Tyr-Gly-Trp-(N-Me)Nle-Asp-(N-Me)Phe-NH2)]", "Percentage of radioligand bound to serum proteins after 4 h incubation": 8.9, "Percentage of radioligand bound to serum proteins after 24 h incubation": 11.9}
{"molecule": "{DOTA}-[dE]AYPW[NMeNle]D[1Nal]-NH2 (also: DOTA coordinates 111In)", "note": "[^111In-DOTA-MGS12]", "Percentage of radioligand bound to serum proteins after 4 h incubation": 41.2, "Percentage of radioligand bound to serum proteins after 24 h incubation": 45.9}
{"molecule": "{DOTA}-[dE]AYGW[NMeNle]D[1Nal]-NH2 (also: DOTA coordinating 111In)", "note": "[^111In-DOTA-MGS5]", "Percentage of radioligand bound to serum proteins after 4 h incubation": 41, "Percentage of radioligand bound to serum proteins after 24 h incubation": 44.3}
{"molecule": "{DOTA}-[dE]AYGW[NMeNle]D[2Nal]-NH2 (also: DOTA coordinating 111In)", "note": "[^111In-DOTA-MGS5-2]", "Percentage of radioligand bound to serum proteins after 4 h incubation": 31.7, "Percentage of radioligand bound to serum proteins after 24 h incubation": 34.6}
{"molecule": "{DOTA}-[dE]PYGW[NMeNle]D[1Nal]-NH2 (also: DOTA coordinates 111In)", "note": "[^111In-DOTA-MGS8]", "Percentage of radioligand bound to serum proteins after 4 h incubation": 44.5, "Percentage of radioligand bound to serum proteins after 24 h incubation": 52.8}
{"molecule": "{DOTA}-[dE]YPGW[NMeNle]D[1Nal]-NH2 (also: DOTA coordinates 111In)", "note": "[^111In-DOTA-MGS10]", "Percentage of radioligand bound to serum proteins after 4 h incubation": 56.7, "Percentage of radioligand bound to serum proteins after 24 h incubation": 53.4}
{"molecule": "{DOTA}-[dE]AYGWMD[1Nal]-NH2 (also: DOTA coordinates 111In)", "note": "[^111In-DOTA-MGS1 (^111In-DOTA-DGlu-Ala-Tyr-Gly-Trp-Met-Asp-1Nal-NH2)]", "Percentage of radioligand bound to serum proteins after 4 h incubation": 20, "Percentage of radioligand bound to serum proteins after 24 h incubation": 28.8}
{"molecule": "{DOTA}-[dK]AYGW[NMeNle]D[1Nal]-NH2 (also: DOTA coordinating 111In)", "note": "[^111In-DOTA-MGS9]", "Percentage of radioligand bound to serum proteins after 4 h incubation": 26.6, "Percentage of radioligand bound to serum proteins after 24 h incubation": 27.8}
{"biological_target": "human cholecystokinin-2 receptor (CCK2R) (human) (UniProt P32239)", "test": "displacement of [125I]Tyr12-gastrin-I on A431-CCK2R cells, filter plates, 1 h RT", "units": {"IC50": "nM"}}
{"molecule": "DOTA-MG11 ([1,4,7,10-tetraazacyclodocecan-1,4,7,10-tetraacetic acid^0, D-Glu^1, DesGlu^2-6] minigastrin) (peptide)", "IC50": 0.9}
{"biological_target": "T1, human cholecystokinin-2 receptor (CCK2R) (human, UniProt P32239 1-447)", "T1 construct": "whole, on cells; also called A431-CCK2R cells", "T1 sequence (looked up)": "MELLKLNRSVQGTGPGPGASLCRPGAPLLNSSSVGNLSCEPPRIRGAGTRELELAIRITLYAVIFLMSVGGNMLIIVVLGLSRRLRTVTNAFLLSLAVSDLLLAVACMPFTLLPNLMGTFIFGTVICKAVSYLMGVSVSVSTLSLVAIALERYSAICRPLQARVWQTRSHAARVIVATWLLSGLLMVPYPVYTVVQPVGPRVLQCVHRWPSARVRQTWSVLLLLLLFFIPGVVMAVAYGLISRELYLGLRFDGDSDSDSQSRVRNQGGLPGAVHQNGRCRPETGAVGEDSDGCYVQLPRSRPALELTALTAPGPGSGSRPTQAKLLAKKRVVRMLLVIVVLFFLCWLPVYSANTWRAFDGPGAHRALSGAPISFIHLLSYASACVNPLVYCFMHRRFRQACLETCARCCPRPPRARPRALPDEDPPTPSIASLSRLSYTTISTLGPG", "test": "displacement of [125I]Tyr12-gastrin-I on A431-CCK2R cells, filter plates, 1 h RT", "experimental": "Affinity for CCK2R was studied in A431 human epidermoid carcinoma cells stably transfected with the plasmid pCR3.1 containing the full coding sequence for the human CCK2R (A431-CCK2R) kindly provided by Dr. Luigi Aloj (Aloj L et al., J Nucl Med 2004, 45:485-494). […] Binding assays were carried out in 96-well filter plates (MultiScreenHTS-FB, Merck Group, Darmstadt, Germany) pretreated with 10 mM TRIS/139 mM NaCl PH 7.4 (2×250 μl). For the assay a number of 200,000-400,000 A431-CCK2R cells per well was prepared in 35mM HEPES buffer pH 7.4 containing 10 mM MgCl₂, 14 μM bacitracin and 0.5% BSA (a hypotonic solution disturbing the integrity of the cell membranes). […] Incubation was interrupted by filtration of the medium and rapid rinsing with ice-cold 10 mM TRIS/139 mM NaCl PH 7.4 (2×200 μl) and the filters were counted in the gamma-counter. Half maximal inhibitory concentration (IC50) values were calculated following nonlinear regression with Origin software (Microcal Origin 6.1, Northampton, MA) and a representative assay was chosen for comparison.", "units": {"IC50": "nM"}}
{"molecule": "{HYNIC}-[dE]AYGW[NMeNle]D[1Nal]-NH2", "note": "[HYNIC-MGS5 (HYNIC-DGlu-Ala-Tyr-Gly-Trp-(N-Me)Nle-Asp-1Nal-NH2)]", "IC50": 6}
{"molecule": "{DOTA}-[dE]AYGWMD[1Nal]-NH2", "note": "[DOTA-MGS1 (DOTA-DGlu-Ala-Tyr-Gly-Trp-Met-Asp-1Nal-NH2)]", "IC50": 1.9}
{"molecule": "{DOTA}-[dE]YPGW[NMeNle]D[1Nal]-NH2 (SMILES CCCC[C@@H](C(=O)N[C@@H](CC(=O)O)C(=O)N[C@@H](Cc1cccc2ccccc12)C(N)=O)N(C)C(=O)[C@H](Cc1c[nH]c2ccccc12)NC(=O)CNC(=O)[C@@H]1CCCN1C(=O)[C@H](Cc1ccc(O)cc1)NC(=O)[C@@H](CCC(=O)O)NC(=O)CN1CCN(CC(=O)O)CCN(CC(=O)O)CCN(CC(=O)O)CC1)", "note": "[DOTA-MGS10 (DOTA-DGlu-Tyr-Pro-Gly-Trp-(N-Me)Nle-Asp-1Nal-NH2)]", "IC50": 0.9}
{"molecule": "{DOTA}-[dE]AYGW[NMeNle]D[NMeF]-NH2 (SMILES CCCC[C@@H](C(=O)N[C@@H](CC(=O)O)C(=O)N(C)[C@@H](Cc1ccccc1)C(N)=O)N(C)C(=O)[C@H](Cc1c[nH]c2ccccc12)NC(=O)CNC(=O)[C@H](Cc1ccc(O)cc1)NC(=O)[C@H](C)NC(=O)[C@@H](CCC(=O)O)NC(=O)CN1CCN(CC(=O)O)CCN(CC(=O)O)CCN(CC(=O)O)CC1)", "note": "[DOTA-MGS4 (DOTA-DGlu-Ala-Tyr-Gly-Trp-(N-Me)Nle-Asp-(N-Me)Phe-NH2)]", "IC50": 1.2}
{"molecule": "{DOTA}-[dE]PYGW[NMeNle]D[1Nal]-NH2 (SMILES CCCC[C@@H](C(=O)N[C@@H](CC(=O)O)C(=O)N[C@@H](Cc1cccc2ccccc12)C(N)=O)N(C)C(=O)[C@H](Cc1c[nH]c2ccccc12)NC(=O)CNC(=O)[C@H](Cc1ccc(O)cc1)NC(=O)[C@@H]1CCCN1C(=O)[C@@H](CCC(=O)O)NC(=O)CN1CCN(CC(=O)O)CCN(CC(=O)O)CCN(CC(=O)O)CC1)", "note": "[DOTA-MGS8 (DOTA-DGlu-Pro-Tyr-Gly-Trp-(N-Me)Nle-Asp-1Nal-NH2)]", "IC50": 1.6}
{"molecule": "{DOTA}-[dK]AYGW[NMeNle]D[1Nal]-NH2 (SMILES CCCC[C@@H](C(=O)N[C@@H](CC(=O)O)C(=O)N[C@@H](Cc1cccc2ccccc12)C(N)=O)N(C)C(=O)[C@H](Cc1c[nH]c2ccccc12)NC(=O)CNC(=O)[C@H](Cc1ccc(O)cc1)NC(=O)[C@H](C)NC(=O)[C@@H](CCCCN)NC(=O)CN1CCN(CC(=O)O)CCN(CC(=O)O)CCN(CC(=O)O)CC1)", "note": "[DOTA-MGS9 (DOTA-DLys-Ala-Tyr-Gly-Trp-(N-Me)Nle-Asp-1Nal-NH2)]", "IC50": 1.8}
{"molecule": "{DOTA}-[dE]AYGW[NMeNle]D[2Nal]-NH2 (SMILES CCCC[C@@H](C(=O)N[C@@H](CC(=O)O)C(=O)N[C@@H](Cc1ccc2ccccc2c1)C(N)=O)N(C)C(=O)[C@H](Cc1c[nH]c2ccccc12)NC(=O)CNC(=O)[C@H](Cc1ccc(O)cc1)NC(=O)[C@H](C)NC(=O)[C@@H](CCC(=O)O)NC(=O)CN1CCN(CC(=O)O)CCN(CC(=O)O)CCN(CC(=O)O)CC1)", "note": "[DOTA-MGS5-2 (DOTA-DGlu-Ala-Tyr-Gly-Trp-(N-Me)Nle-Asp-2Nal-NH2)]", "IC50": 1.6}
{"biological_target": "T1, human cholecystokinin-2 receptor (CCK2R)", "test": "cell-based or functional assay", "units": {"cellular internalization after 2 h incubation on A431-CCK2R cells (% of total activity)": "%", "cell uptake after 2 h incubation on A431-CCK2R cells (% of total activity)": "%"}}
{"molecule": "^111In-DOTA-MG11 (peptide)", "cellular internalization after 2 h incubation on A431-CCK2R cells (% of total activity)": 29}
{"molecule": "{DOTA}-[dE][dE][dE][dE][dE][dE]AYGWMDF-NH2 (also: DOTA coordinating 177Lu)", "note": "[^177Lu-PP-F11]", "cell uptake after 2 h incubation on A431-CCK2R cells (% of total activity)": "< 30"}
{"molecule": "{DOTA}-[dE]AYGW[NMeNle]D[1Nal]-NH2 (also: DOTA coordinating 68Ga)", "note": "[^68Ga-DOTA-MGS5]", "cell uptake after 2 h incubation on A431-CCK2R cells (% of total activity)": 54}
{"molecule": "{DOTA}-[dE]AYGW[NMeNle]D[1Nal]-NH2 (also: DOTA coordinating 111In)", "note": "[^111In-DOTA-MGS5]", "cell uptake after 2 h incubation on A431-CCK2R cells (% of total activity)": 68}
{"molecule": "{DOTA}-[dE]AYGW[NMeNle]D[2Nal]-NH2 (also: DOTA coordinating 111In)", "note": "[^111In-DOTA-MGS5-2]", "cell uptake after 2 h incubation on A431-CCK2R cells (% of total activity)": 45}
{"molecule": "{HYNIC}-[dE]AYGW[NMeNle]D[1Nal]-NH2 (also: HYNIC coordinating 99mTc, co-ligand not given here)", "note": "[^99mTc-HYNIC-MGS5]", "cell uptake after 2 h incubation on A431-CCK2R cells (% of total activity)": 63}
{"molecule": "{DOTA}-[dE]AYGW[NMeNle]D[1Nal]-NH2 (also: DOTA coordinating 177Lu)", "note": "[^177Lu-DOTA-MGS5]", "cell uptake after 2 h incubation on A431-CCK2R cells (% of total activity)": 63}
{"molecule": "{DOTA}-[dE][dE][dE][dE][dE][dE]AYGWMDF-NH2 (also: DOTA coordinating 111In)", "note": "[^111In-PP-F11]", "cellular internalization after 2 h incubation on A431-CCK2R cells (% of total activity)": "< 24"}
{"molecule": "{DOTA}-[dE]YPGW[NMeNle]D[1Nal]-NH2 (also: DOTA coordinating 177Lu)", "note": "[^177Lu-DOTA-MGS10]", "cellular internalization after 2 h incubation on A431-CCK2R cells (% of total activity)": "> 50"}
{"molecule": "{DOTA}-[dE]AYPW[NMeNle]D[1Nal]-NH2 (also: DOTA coordinating 68Ga)", "note": "[^68Ga-DOTA-MGS12]", "cellular internalization after 2 h incubation on A431-CCK2R cells (% of total activity)": "~40"}
{"molecule": "{DOTA}-[dK]AYGW[NMeNle]D[1Nal]-NH2 (also: DOTA coordinating 111In)", "note": "[^111In-DOTA-MGS9]", "cell uptake after 2 h incubation on A431-CCK2R cells (% of total activity)": 37}
